Columns and labels:
[1] = tested on: liver fibrosis (liver hydroxyproline); experiment: CCl4 model of liver fibrosis; assay type: in vivo, mouse; settings: CCl4 mice, 4 weeks
Experimental: Carbon tetrachloride (CCl4) treatment of mice is a well-characterized model of liver fibrosis. In this model, Balb/C mice were dosed intraperitoneally (i.p.) twice weekly with 2.5 μl of a 20% CCl4 solution in corn oil per gram bodyweight. This CCl4 dosing was maintained throughout the duration of the study(6 weeks). After two weeks of CCl4 dosing, dosing with test articles started. […] After 6 weeks of CCl4 dosing (4 weeks of antibody treatment), mice were sacrificed and liver tissue was collected.
The hydroxyproline assay (see description above) was used to measure fibrosis in liver lysates from this study. […] The treatment effect of both TGFβ1-specific antibodies was similar to that of the pan-TGFβ inhibitor 1D11.

human proTGFβ1 C4S/R249A = target: T1, human proTGFβ1 C4S/R249A (Homo sapiens, UniProt P01137, C33S/R278A); experiment: X-ray crystallography of proTGFβ1:Ab2-Fab:AbX-Fab ternary complex; assay type: binding; settings: numbering after removal of signal sequence
T1 construct: made in house; host or cells: expi293 (kifunensine-treated), co-expressed with Ab2-Fab
Text: In this work, an uncleavable human proTGFβ1 C4S/R249A variant was used that spans residues 30-390 based on the full-length sequence of human proTGFβ1 (Uniprot ID P01137). The numbering system that will be used for the rest of this document will designate position 1 as the first amino acid residue after the removal of the signal sequence for proTGFβ isoforms. The C4S mutation renders proTGFβ1 not capable of covalent crosslinking to any known presenting molecules, e.g. LTBPs and GARP, while the R249A renders proTGFβ1 resistant to proprotein convertase/furin protease cleavage, thus maintaining proTGFβ1 in its uncleaved, proprotein form. ProTGFβ1 C4S/R249A was co-expressed with C-terminally 6×-His tagged Ab2-Fab in kifunensine-treated expi293 mammalian expression system to reduce N-linked glycosylation events. The proTGFβ1 C4S/R249A:Ab2-Fab was affinity purified, treated with endoglycosidase H and purified by gel filtration. The proTGFβ1 C4S/R249A:Ab2-Fab complex was then incubated with AbX-Fab to generate the ternary complex. The AbX Fab in this context was used as an auxiliary protein, which acts as a crystallization chaperone to increase the probability of obtaining protein crystals.
Crystallization experiments were performed at room temperature in a sitting drop format. […]

T1 sequence (P01137 30-390 C33S/R278A): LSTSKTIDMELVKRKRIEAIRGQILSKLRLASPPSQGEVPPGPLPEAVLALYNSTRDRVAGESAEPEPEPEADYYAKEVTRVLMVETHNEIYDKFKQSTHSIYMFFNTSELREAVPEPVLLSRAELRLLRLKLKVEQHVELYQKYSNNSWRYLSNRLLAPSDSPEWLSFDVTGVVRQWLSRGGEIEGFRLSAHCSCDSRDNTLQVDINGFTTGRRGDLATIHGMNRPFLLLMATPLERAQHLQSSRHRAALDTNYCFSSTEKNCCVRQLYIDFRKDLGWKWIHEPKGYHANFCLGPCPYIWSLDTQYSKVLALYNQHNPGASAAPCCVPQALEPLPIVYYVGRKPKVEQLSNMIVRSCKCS

B1: Ab2: isoform-selective inhibitor of TGFβ1 activation; VH SEQ ID NO: 13, VL SEQ ID NO: 15; human IgG4 (antibody, V domains shown)
VH: EVQLLESGGGLVQPGGSLRLSCAASGFTFADYAMTWVRQAPGKGLEWVSAISGSGAATYFADSVKGRFTISRDNSKNTLYLQMNSLRAEDTAVYYCARVSSGHWDFDYWGQGTLVTVSS
VL: DIQLTQSPSSLSASVGDRVTITCRASQSISSYLNWYQQKPGKAPKLLIYAASNLQSGVPSRFSGSGSGTDFTLTISSLQPEDFATYYCQQTYTVPLTFGGGTKVEIK
modifications: human IgG4 constant regions
Liver hydroxyproline ([1]; high dose 15 mg/kg i.p. twice weekly): statistically significant reduction in liver hydroxyproline | Liver hydroxyproline ([1]; lower doses 5 or 1.5 mg/kg i.p. twice weekly): trend towards reduced liver hydroxyproline, but these differences are not statistically significant | Epitope on proTGFβ1 from crystal structure (human proTGFβ1 C4S/R249A): linear epitope formed by residues 35-43
